Substitutions are numbered along the chain they refer to. Read-outs that look alike come from different tables or passages of the source. Each block holds one binder with its values, some of them ahead of it.
How the values were obtained:
Assay in all cases: flow cytometry, HEK293E cells
human CLDN9 = target: T1, human CLDN9 (UniProt O95484 1-217)
T1 chain: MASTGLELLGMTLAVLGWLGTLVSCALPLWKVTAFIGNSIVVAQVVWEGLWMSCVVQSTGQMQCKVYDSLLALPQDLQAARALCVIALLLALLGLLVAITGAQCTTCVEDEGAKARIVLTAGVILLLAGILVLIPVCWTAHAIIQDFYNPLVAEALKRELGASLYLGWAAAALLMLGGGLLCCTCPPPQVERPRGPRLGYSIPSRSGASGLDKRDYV

human CLDN6 [1] = target: T2, human CLDN6 (UniProt P56747 1-220)
T2 chain: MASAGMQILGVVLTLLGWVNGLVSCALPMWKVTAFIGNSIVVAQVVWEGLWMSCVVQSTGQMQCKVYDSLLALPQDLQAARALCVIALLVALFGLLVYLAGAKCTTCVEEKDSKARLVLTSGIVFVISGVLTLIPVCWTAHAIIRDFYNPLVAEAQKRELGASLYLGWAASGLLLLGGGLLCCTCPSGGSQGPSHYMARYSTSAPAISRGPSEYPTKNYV

CLDN6 I143V isotype = target: T3, CLDN6 I143V isotype (UniProt P56747 1-220)
T3 chain: T2 chain with I143V

cyno CLDN6 = target: T4, cyno CLDN6
T4 chain: T2 chain with Q191R

human CLDN6 [2] = target: T2, human CLDN6
mouse CLDN6 = target: T5, mouse CLDN6 (mouse, UniProt Q9Z262 1-219)
T5 chain: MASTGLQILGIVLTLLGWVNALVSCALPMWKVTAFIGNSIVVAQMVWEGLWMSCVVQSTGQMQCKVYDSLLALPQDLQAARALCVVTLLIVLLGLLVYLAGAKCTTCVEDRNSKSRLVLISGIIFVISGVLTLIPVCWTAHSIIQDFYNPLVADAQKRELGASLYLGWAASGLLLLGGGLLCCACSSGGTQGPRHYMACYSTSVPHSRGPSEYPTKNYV

EC50 (human CLDN9): 137 µg/mL
EC50 (human CLDN6 [1]): 20.6 µg/mL
EC50 (CLDN6 I143V isotype): 12.9 µg/mL
EC50 (cyno CLDN6): 3.19 µg/mL
EC50 (human CLDN6 [2]): 2.38 µg/mL
EC50 (mouse CLDN6): 6.71 µg/mL
B1: XENP34637 (C6-30_H2L1 x CD3 bsAb in the 1+1 Fab-scFv-Fc format) (bispecific antibody)
heavy: EVQLVQSGAEVKKPGESLRISCKTSGYTFTEYTMHWVRQMPGKSLEWMGGIDPNNGNTHYNQKFQGHVTISVDKSISTAYLQWSSLKASDTAMYYCARIYYFGRLYFDFWGAGTLVTVSSASTKGPSVFPLAPSSKSTSGGTAALGCLVKDYFPEPVTVSWNSGALTSGVHTFPAVLQSSGLYSLSSVVTVPSSSLGTQTYICNVNHKPSDTKVDKKVEPKSCDKTHTCPPCPAPPVAGPSVFLFPPKPKDTLMISRTPEVTCVVVDVKHEDPEVKFNWYVDGVEVHNAKTKPREEEYNSTYRVVSVLTVLHQDWLNGKEYKCKVSNKALPAPIEKTISKAKGQPREPQVYTLPPSREEMTKNQVSLTCDVSGFYPSDIAVEWESDGQPENNYKTTPPVLDSDGSFFLYSKLTVDKSRWEQGDVFSCSVMHEALHNHYTQKSLSLSPGK
scFv-Fc: not shown
light: not shown

EC50 (human CLDN9): 11.2 µg/mL
EC50 (human CLDN6 [1]): 0.435 µg/mL
EC50 (CLDN6 I143V isotype): 0.2 µg/mL
EC50 (cyno CLDN6): 0.267 µg/mL
EC50 (human CLDN6 [2]): 0.244 µg/mL
EC50 (mouse CLDN6): 0.588 µg/mL
B2: XENP34638 (C6-30_H2L1 x CD3 bsAb in the 2+1 Fab2-scFv-Fc format) (bispecific antibody)
heavy 1: B1 heavy
heavy 2: EVQLVQSGAEVKKPGESLRISCKTSGYTFTEYTMHWVRQMPGKSLEWMGGIDPNNGNTHYNQKFQGHVTISVDKSISTAYLQWSSLKASDTAMYYCARIYYFGRLYFDFWGAGTLVTVSSASTKGPSVFPLAPSSKSTSGGTAALGCLVKDYFPEPVTVSWNSGALTSGVHTFPAVLQSSGLYSLSSVVTVPSSSLGTQTYICNVNHKPSNTKVDKKVEPKSCGGGGSGGGGSQAVVTQEPSLTVSPGGTVTLTCGSSTGAVTTSNYANWVQQKPGKSPRGLIGGTNKRAPGVPARFSGSLLGGKAALTISGAQPEDEADYYCALWYSNHWVFGGGTKLTVLGKPGSGKPGSGKPGSGKPGSEVQLVESGGGLVQPGGSLRLSCAASGFTFSTYAMNWVRQAPGKGLEWVGRIRSKYNNYATYYADSVKGRFTISRDDSKNTLYLQMNSLRAEDTAVYYCVRHGNFGDSYVSWFAYWGQGTLVTVSSGGGGSGGGGSKTHTCPPCPAPPVAGPSVFLFPPKPKDTLMISRTPEVTCVVVDVKHEDPEVKFNWYVDGVEVHNAKTKPREEQYNSTYRVVSVLTVLHQDWLNGKEYKCKVSNKALPAPIEKTISKAKGQPREPQVYTLPPSREQMTKNQVKLTCLVKGFYPSDIAVEWESNGQPENNYKTTPPVLDSDGSFFLYSKLTVDKSRWQQGNVFSCSVMHEALHNHYTQKSLSLSPGK
light: not shown
